Among the data in paper PMC2939065, “Nephrocystin-1 Forms a Complex with Polycystin-1 via a Polyproline Motif/SH3 Domain Interaction and Regulates the Apoptotic Response in Mammals” (PLoS ONE, 2010) are binding result and Kd values, retold here.

Assay [1] concerns the target T1, NPHP1-SH3 (15N-labelled SH3 domain of nephrocystin-1 for NMR and ITC) (Homo sapiens (Human), UniProt O15259).
T1 chain: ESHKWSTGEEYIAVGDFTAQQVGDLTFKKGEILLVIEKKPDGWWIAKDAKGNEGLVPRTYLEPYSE
The assay can be described thus: NMR titration (1H-15N HSQC).

Assay [2] has as its target T2, NPHP1-SH3 (15N-labelled SH3 domain of nephrocystin-1 for NMR and ITC) (human, UniProt O15259 147-212).
T2 construct: Nephrocystin-1 (NPHP1), human, SH3 domain, codons 147-212, expressed from pGEX-2T; 15N isotope label for NMR; also called 15N NPHP1-SH3
T2 sequence (looked up): T1 chain
The assay can be described thus: NMR titration; 1H-15N HSQC of 15N NPHP1-SH3 (0.3 mM) with added peptide (0, 0.5, 1, 1.5, 2, 3, 4 equivalents for peptPP2); fast exchange. To be noted: both partners purified.

Turning to Ac-RGSKVSPDVPPPS-NH2 (protein) [peptPP1], in assay [1], the binding result is reported as “no binding”.

B1: peptPP2 (peptide)
peptide: Ac-GLRPALPSRLARAS-NH2
notes: stretch of the PC-1 C-tail containing PP2 (P4267ALPSR4272), aminoacids 4264-4277; also called PP2 peptide; source: synthetic peptide, bought: CASLO (Lyngby, Denmark)
With B1, the dissociation constant Kd (commonly the concentration at which binding is half-saturated) in assay [2] amounted to 300 ± 20 µM.
